Assay results reported in patent US20100137155A1, “BIOSENSOR, METHOD FOR FABRICATING THE SAME, DETECTING METHOD UTILIZING THE SAME” (SHARP KABUCHIKI KAISHA, priority 2006, published 2010).

Experiments:
Cry-J1 = target: T1, Cry-J1 (Cryptomeria japonica, UniProt P18632); assay: ELISA detection efficiency for Cry-J1 of peptides bonded to PEG-DG linkers on aminated plate (Examples 2-5); type: binding, Japanese cedar (Cryptomeria japonica); conditions: for reactivity with respect to Cry-J1 (SH1 compared with AL1) / inclination of the 450 nm light absorbance versus antigen Cryj1 concentration: PEG-DG chain length 11.0 Å, n=2; for reactivity with respect to Cry-J1 (SH1 compared with AL1): FIG. 10; for inclination of the 450 nm light absorbance versus antigen Cryj1 concentration: antigen Cryj1 0 to 2.0 μg/mL
T1 sequence (P18632 22-374): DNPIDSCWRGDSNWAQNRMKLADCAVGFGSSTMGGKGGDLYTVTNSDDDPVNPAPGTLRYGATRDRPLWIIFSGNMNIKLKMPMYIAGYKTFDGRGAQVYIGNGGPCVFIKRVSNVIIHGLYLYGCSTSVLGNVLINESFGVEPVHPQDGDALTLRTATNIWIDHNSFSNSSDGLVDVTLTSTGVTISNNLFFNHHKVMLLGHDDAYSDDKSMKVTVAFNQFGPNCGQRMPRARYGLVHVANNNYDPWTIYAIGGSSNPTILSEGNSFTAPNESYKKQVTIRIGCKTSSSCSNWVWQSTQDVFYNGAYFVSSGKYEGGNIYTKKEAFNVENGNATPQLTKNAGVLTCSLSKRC
Experimental: In order to examine influences that the length of the linker has on the detection sensitivity of the biosensor, the following experiment was carried out. A 5 μg/mL aqueous solution of acetyl-NH-TEYTIHWWK-COOH(SH1) serving as an artificially synthesized CRY-J1 recognition peptide was mixed with a sodium hydrogen carbonate buffer solution (pH=9) containing 45 μM poly(or mono)ethylene glycol diglycidyl ether (PEG-DG) in order to cause a solid phase reaction.
As PEG-DG (poly(or mono)ethylene glycol diglycidyl ether) serving as a linker molecule, six kinds thereof with different chain lengths were selected. Specifically, sample 1: 8.3 Å chain length, degree of polymerization n=1; sample 2: 11.0 Å chain length, degree of polymerization n=2; sample 3: 16.6 Å chain length, degree of polymerization n=4; sample 4: […] chain length, degree of polymerization n=9; sample 5: 41.4 Å chain length, degree of polymerization n=13; and sample 6: 66.2 Å chain length, degree of polymerization n=22. The PEG-DG was selected from the Denacole EX series of Nagase ChemteX Corporation.
Using an aminated 96-hole ELISA method plate (Sumilon MS-3608F, available from SUMITOMO BAKELITE Co., Ltd.) as a solid phase, the solid phase reaction was completed in 24 hours at room temperature.
Blocking One, available from Nacalai Tesque, Inc., was used for the blocking, and the reaction was carried out at room temperature and completed in 24 hours.
To each of the linker molecules with different lengths, 50 μL of each of the acetyl-NH-TEYTIHWWK-COOH diluted solutions of 0 μg/mL, 0.2 μg/mL, 0.5 μg/mL, 1.0 μg/mL, 2.0 μg/mL, and 5.0 μg/mL was dropped to cause bonding between the linker and the peptide.
Anti-cedar pollen antigen Cry-J1-HRP (Horse Radish Peroxidase) (SEIKAGAKU CORPORATION) serving as a secondary antibody was prepared by diluting it 1000-fold with a phosphoric acid buffer solution containing 0.1% Tween 20, and 100 μL of this preparation solution was added to cause a reaction for one hour at room temperature. […]
The solid phase reaction was caused by mixing a 5 μg/mL aqueous solution of acetyl-NH-KTEYTIHWWK-COOH with a sodium hydrogen carbonate buffer solution (pH=9) containing 45 μM poly(or mono)ethylene glycol diglycidyl ether (PEG-DG).
The solid phase reaction was caused by mixing a 5 μg/mL aqueous solution of acetyl-NH-TEETIWWWK-COOH with a sodium hydrogen carbonate buffer solution (pH=9) containing 45 μM polyethylene glycol diglycidyl ether (PEG-DG).
As polyethylene glycol diglycidyl ether (PEG-DG), one such that the chain length was 11.0 Å and the degree of polymerization was n=2 was used.
The reaction of the artificially synthesized peptide AM was carried out in such a manner that 50 μL of each of the antigen Cryj1 diluted solutions of 0 μg/mL, 0.2 μg/mL, 0.5 μg/mL, 1.0 μg/mL, 2.0 μg/mL, and 5.0 μg/mL was dropped to cause bonding between the linker and the peptide.
For acetyl-NH-TEYTIHWWK-COOH(SH1) serving as the artificially synthesized Cry-J1 recognition peptide, a solid phase was carried out in accordance with example 2. The poly(or mono)ethylene glycol diglycidyl ether (PEG-DG) that was used was such that the chain length was 11.0 Å and the degree of polymerization was n=2.

[1] = target: T2, pollen allergen protein (Cry-J1) (Cryptomeria japonica, UniProt P18632); assay: ELISA of Cry-J1 capture by peptide immobilized on amino group-bonded plate via polyethylene diglycidyl ether (Example 1); type: binding, Japanese cedar (Cryptomeria japonica); conditions: Cry-J1 0, 1, 5, 10 ng/mL; peptide immobilized through polyethylene diglycidyl ether; FIG. 5
T2 construct: purchased SEIKAGAKU CORPORATION
T2 sequence (P18632 22-374): T1 sequence (P18632 22-374)
Experimental: The reactivity between anti-Cry-J1 antibody H chain hypervariable area peptide (acetylated TEYTIHWWK) and pollen allergen protein (Cry-J1) was studied by the ELISA method. The experiment method can be summarized as follows.
To a well of an amino group-bonded plate (MS-3608F, available from SUMITOMO BAKELITE Co., Ltd.), a 200 μL solution of 0.0095 mg/mL acetylated TEYTIHWWK and 0.018 mg/mL polyethylene diglycidyl ether was added, and the resulting product was settled for a night at 4° C.
The peptide solution was taken out, followed by addition thereto 200 μL Blocking One (available from Nacalai Tesque, Inc.), and the resulting product was subjected to blocking processing.
After the blocking processing, the blocking solution was taken out and the well was washed with PBS containing 0.05% Tween 20. As the washing, the operation of adding and taking out 200 μL PBS containing 0.05% Tween 20 (20 mM of sodium phosphate, pH 7.4, 0.15 M of NaCl) to and of the well was carried out three times. […]
To the well, 100 μL color developing solution (available from Nacalai Tesque, Inc.) was added to cause a reaction for 10 minutes at room temperature. After the 10 minutes of reaction, 100 μL stop solution was added, and a 450 nm light absorbance was measured with a plate reader (available from Bio-Rad Laboratories, Inc.).

| Substance | reactivity with respect to Cry-J1 (SH1 compared with AL1) (Cry-J1) | inclination of the 450 nm light absorbance versus antigen Cryj1 concentration (Cry-J1) | further results |
| --- | --- | --- | --- |
| acetyl-NH-KTEYTIHWWK-COOH (Ac-KTEYTIHWWK-OH) [Cry-J1 recognition peptide with a lysine residue at both terminals, N terminal α-amino group acetylated] |  |  | detection efficiency with respect to Cry-J1 (inclination of 450 nm light absorbance) (Cry-J1; one linker at N terminal lysine and another at C terminal lysine, linker lengths 8.3 to 66.2 Å (n=1 to 22), FIG. 8): substantially the same irrespective of the linker length |
| acetyl-NH-TEYTIHWWK-COOH (Ac-TEYTIHWWK-OH) [artificially synthesized CRY-J1 recognition peptide; only α-amino group of N terminal T acetylated, lysine added to C terminal] | substantially the same reactivity | linear | detection efficiency with respect to Cry-J1 (inclination of 450 nm light absorbance) (Cry-J1; linker bonded at C terminal lysine, linker lengths of 15 Å or less (n=1 or 2) compared with 16.6 Å or more (n=4 or greater), FIG. 6): higher; reactivity between peptide and pollen allergen protein (Cry-J1), 450 nm light absorbance [1]: captured by the peptide depending on the concentration of the protein |
| acetyl-NH-KTEYTIHWW-COOH (Ac-KTEYTIHWW-OH) [anti-Cry-J1 antibody H chain hypervariable area peptide with N terminal lysine, α-amino group acetylated] |  |  | detection efficiency with respect to Cry-J1 (inclination of 450 nm light absorbance) (Cry-J1; linker bonded at N terminal lysine side chain, linker lengths of 20 to 60 Å (degree of polymerization n=4 to 9), FIG. 7): high |
| acetyl-NH-TEETIWWWK-COOH (Ac-TEETIWWWK-OH) [peptide in which tyrosine was changed to glutamic acid and histidine to tryptophan] | substantially the same reactivity | linear |  |
